According to patent EP4702992A1, “ANTIBODY-DRUG CONJUGATE” (priority 2023, dated 2024):

Assays:
[1] = biological target: DLL3 on the surface of NCI-H209, SHP77, NCI-H526, NCI-H82 and NCI-H69 cells (human) (UniProt Q9NYJ7); assay: flow cytometry, D-ADC55-1-8 (15 µg/mL) on NCI-H69 cells, anti-human IgG Alexa Fluor 488
[2] = biological target: DLL3 on the surface of NCI-H209, SHP77, NCI-H526, NCI-H82 and NCI-H69 cells (human) (UniProt Q9NYJ7); assay: flow cytometry, D-ADC55-1-8 (15 µg/mL) on NCI-H526 cells, anti-human IgG Alexa Fluor 488
[3] = biological target: DLL3 on the surface of NCI-H209, SHP77, NCI-H526, NCI-H82 and NCI-H69 cells (human) (UniProt Q9NYJ7); assay: flow cytometry, D-ADC55-1-8 (15 µg/mL) on NCI-H209 cells, anti-human IgG Alexa Fluor 488
[4] = biological target: DLL3 on the surface of NCI-H209, SHP77, NCI-H526, NCI-H82 and NCI-H69 cells (human) (UniProt Q9NYJ7); assay: flow cytometry, D-ADC55-1-8 (15 µg/mL) on SHP77 cells, anti-human IgG Alexa Fluor 488
[5] = biological target: DLL3 on the surface of NCI-H209, SHP77, NCI-H526, NCI-H82 and NCI-H69 cells (human) (UniProt Q9NYJ7); assay: flow cytometry, D-ADC55-1-8 (15 µg/mL) on NCI-H82 cells, anti-human IgG Alexa Fluor 488

Sequence of DLL3 on the surface of NCI-H209, SHP77, NCI-H526, NCI-H82 and NCI-H69 cells (human) (Q9NYJ7 27-618): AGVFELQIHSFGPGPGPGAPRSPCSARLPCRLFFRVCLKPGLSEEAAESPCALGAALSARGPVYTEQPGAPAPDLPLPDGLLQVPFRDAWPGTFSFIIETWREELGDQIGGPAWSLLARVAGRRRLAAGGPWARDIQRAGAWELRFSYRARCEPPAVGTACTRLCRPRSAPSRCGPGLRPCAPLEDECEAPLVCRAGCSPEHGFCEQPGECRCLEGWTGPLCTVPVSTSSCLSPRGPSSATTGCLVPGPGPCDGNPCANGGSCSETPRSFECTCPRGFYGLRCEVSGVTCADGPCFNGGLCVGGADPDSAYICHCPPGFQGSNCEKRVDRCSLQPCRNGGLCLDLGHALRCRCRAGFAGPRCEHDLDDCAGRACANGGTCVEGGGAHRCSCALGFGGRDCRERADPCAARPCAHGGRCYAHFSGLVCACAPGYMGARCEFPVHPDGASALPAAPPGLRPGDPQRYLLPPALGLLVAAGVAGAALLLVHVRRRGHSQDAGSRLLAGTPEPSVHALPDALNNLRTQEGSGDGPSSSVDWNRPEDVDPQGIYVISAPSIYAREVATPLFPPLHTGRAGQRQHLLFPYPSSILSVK

- DLL3+ % [1]: 5.29%
- Experimental well: negative control ratio [1]: 3.03
- DLL3+ % [2]: 29.1%
- Experimental well: negative control ratio [2]: 3.73
- DLL3+ % [3]: 44.4%
- Experimental well: negative control ratio [3]: 7.73
- DLL3+ % [4]: 35.8%
- Experimental well: negative control ratio [4]: 3.23
- DLL3+ % [5]: 11.2%
- Experimental well: negative control ratio [5]: 5.02
B1: D-ADC55-1-8 (antibody, human IgG1, kappa, L234A L235A, V domains shown)
VH: QVQLVQSGAEVKKPGASVKVSCKASGYTFTDYYMKWVRQAPGQRLEWMGAFNLNNGDTFYNQKFKGRVTITRDTSASTAYMELSSLRSEDTAVYYCARDVYGYGDYWGQGTSVTVSS
VL: DIVMTQSPDSLAVSLGERATINCRASKSVSTSGYSYMHWYQQKPGQPPKLLIYLASNLDSGVPDRFSGSGSGTDFTLTISSLQAEDVAVYYCQHSRELPYTFGGGTKLEIKR
modifications: linker-drug LD55-1 (exatecan payload) conjugated to sulfhydryls of reduced interchain disulfide cysteines; average DAR 8.0 per antibody
